Assay: yeast display, Sf9 membrane polyspecificity reagent, FACS + sequencing; frameworks hold sequencing errors
How it was run: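 Nanobodies from a synthetic yeast display library (Saccharomyces cerevisiae BJ5465), induced 36–48 hours with galactose, were stained 1 hour at 4 °C with 10% biotinylated, detergent-solubilized Sf9 membrane reagent, enriched on streptavidin microbeads, then FACS-sorted. Anti-HA (expression) and streptavidin (reagent binding) fluorescence set low and high (top ~1%) gates. Polyreactivity labels come from the gate of origin. Genes were colony-PCR amplified, MiSeq 2 × 250 sequenced and filtered by CDR length.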

Sequence	polyreactivity (PSR sort gate)
QVQLVESGGGLVQAGGSLRLSCAASGITFKRYAMGWYRQAPGKERELVAAITWRGARTYYADSVKGRFTISRDNAKNTVYLQMNSLKPEDTAVYYCAADGYSGSGPYDYWGQGTQVTVSS	high polyreactivity
QVQLVESGGGLVQAGGSLRLSCAASGITFKRYAMGWYRQAPGKEREMVAAITGIGGSTYYADSVKGRFTISRDNAMNTVYLQMNSLKPEDTAVYYCAARNNKKYDYWGQGTQVTVSS	high polyreactivity
QVQLVESGGGLVQAGGSLRLSCAASGITFKTNARGWYRQAPGKERELVAAINKRGGSTYYADSVKGRFTISRDNAKNTVYLQMNSLKPEDTAVYYCARRYGEKFGGQGTQVTVSS	high polyreactivity
QVQLVESGGGLVQAGGSLRLSCAASGITFLDNAMGWYRQAPGKERELVAAITSDGNTYYADSVKGRFTISRDNAKNTVYLQMNSLKPEDTAVYYCAARGFLKYVTEFDYWGQGTQVTVSS	low polyreactivity
QVQLVESGGGLVQAGGSLRLSCAASGITFLEYAMGWYRQAPGKERELVATINSGGSTNYADSVKGRFTISRDNAKNTVYLQMNSLKPVDTAVYYCAADYGSDYTKGDYWGQGTQVTVSS	low polyreactivity
QVQLVESGGGLVQAGGSLRLSCAASGITFLFYVMGRYRQERGKERELVSTINSDDTTYYADSVKGRFTISRDNAKNTVYLQMNCLKPEDTAVYYCAADTWLWYGFDHWGQGTQVTVSS	high polyreactivity
QVQLVESGGGLVQAGGSLRLSCAASGITFLKNAMGWYRQAPGKERELVAAISSSGGSTYYADSVKGRFTISRDNAKNTVYLQMNSLKPEDTAVYYCAAYPTSTVVDDFDYWGQGTQVTVSS	high polyreactivity
QVQLVESGGGLVQAGGSLRLSCAASGITFLKNAMGWYRQAPGKESELVAAISSSGGSTYYADSVKGRFTISRDNAKNTVYLQMNSLKPEDTAVYYCAARIYWYTPGRRGYTYDYWGQGTQVTVSS	high polyreactivity
QVQLVESGGGLVQAGGSLRLSCAASGITFLNYAMGWYRQAPGKERELVAAIDTRGGRTNYADSVKGRFTISRDNAKNNVYLQMNSLKPEDTAVYYCAADPFYWYRSVRGEYWGQGSQVTVSS	low polyreactivity
QVQLVESGGGLVQAGGSLRLSCAASGITFLNYAMGWYRQAPGKERELVAAIDTRGGRTNYADSVKGRFTISRDNAKNTVYLQMNSLKPEDTAVYYCNALGYYVHKMDYWGQGTQVTVSS	low polyreactivity
QVQLVESGGGLVQAGGSLRLSCAASGITFLNYAMGWYRQATGKERELVAANDTRGGRTNYADSVKGRFTISRDNAKNTVYLQMNSVKPEDTEVYYCYALGYYVHKMDYWGQGTQVTVSS	low polyreactivity
QVQLVESGGGLVQAGGSLRLSCAASGITFLPYAMGWYRQAPGKERELVAAITRGGGSTYADSVKGRFTISRDNAKYTVYLQMKSLKPEDTAVYYCAKRLGRVSWYEDYDYWGQGTEVTVSS	low polyreactivity
QVQLVESGGGLVQAGGSLRLSCAASGITFLPYARGWYRQAPGKERELVAAITRGGGSTYADSVKGRFTISRDNAKNTVYLQMNSLKPEDTAVYYCAKRYGRVSWYEDYDYWGQGTQVTVSS	low polyreactivity
QVQLVESGGGLVQAGGSLRLSCAASGITFLRNTMGWYRQAPGKERELVAAISRCGSTYYADSVKGRFTISRDNAKNTVYLQMNSLKPEDTAVYYCNAPSYVQATDYDYWGQGTQVTVSS	high polyreactivity
QVQLVESGGGLVQAGGSLRLSCAASGITFLRYAMGWYRKSPGKERELVARISSGGRTDYADSVKGRFTISRDNAKNTVYLQMNSLKPEDSAVYYCNATVYEWHTEYDYWGQGTQVTVSS	high polyreactivity
QVQLVESGGGLVQAGGSLRLSCAASGITFLSNAMGWYRQAPGKERELDAAISRGGGTTYYADSVKGRFTISRDIAKNTVYLLMNCLKPEDTAGSYCGTESTHTRRYWYEYWGLGTQVTVSS	high polyreactivity
QVQLVESGGGLVQAGGSLRLSCAASGITFLVYAMGWYRQAPGKERELVAAISADAGGTYYADSVKGRFTISRDNAKNTVYLQMNSLKPEDTAVYYCNVDGRSDGDDYWGQGTQVTVSS	low polyreactivity
QVQLVESGGGLVQAGGSLRLSCAASGITFLYYAMGWYRQAPGTERELVAAITSSGGRTYYADSVKGRFTISRDNAKNTVCLQMNSLKPEDTAVYYCAADSRTYNGGYYWGQGTQVTVSS	high polyreactivity
QVQLVESGGGLVQAGGSLRLSCAASGITFNFYAMGWYRQAPGKERELVAAITQSGGSTYYADSVKGRFTISRDNAKNTVYLQMNSLKPEDTAVYYCAAARTGHMYYWGQGTQVTVSS	high polyreactivity
QVQLVESGGGLVQAGGSLRLSCAASGITFNGYVMGWYRQAPGKERELVAAITSGARTYYADSVKGRFTISRDNAKNTVYLQMNSLKPEDTAVYYCAASIWLYRYYYWGQVTQVTVSS	high polyreactivity
QVQLVESGGGLVQAGGSLRLSCAASGITFNLYAMGWYRQAPGKEREFVAVITASGSSTYYADSVKGRFTISRDNAKNTVYLQMNSLKPEDTAVYYCAARWHIYYFSYVTSYAYGYWGQGTQVTVSS	high polyreactivity
QVQLVESGGGLVQAGGSLRLSCAASGITFNRYVMGWYRQAPGKERELVAANSRTGGSTYYADSVKGRFTISRDTGKNTVYLQMNILKPEDTAVYYCAAATSPGIYDYWGQGTQVTVSS	high polyreactivity

Sequence	polyreactivity (PSR sort gate)
QVQLVESGGGLVQAGGSLRLSCAASGITFNWYAMGWYRQAPGKERELVAAISGSGGRTYYADSVKGRFTISRDYPKNTVYLQMTSLKPEDTAVYYCNKVPYYAGQNYVYWGQGTQVTVSS	high polyreactivity
QVQLVESGGGLVQAGGSLRLSCAASGITFNYAMGWYRQAPGKERELVAAISRRGGSTYYADSVKGRFTISRDNAKNTVYLQMNSLKPEDTAVYYCNTTVWGSYYYWGQGTQVTVSS	high polyreactivity
QVQLVESGGGLVQAGGSLRLSCAASGITFPENDMGWYIKAPGKEREFDADITSSGGNTYYADSVKGRFTISRDNAKNTVYLHMNSLKPEDSAVYYCNADDGYFYVYQGWYDEMDYWGQGTQVTVSS	high polyreactivity
QVQLVESGGGLVQAGGSLRLSCAASGITFPGYAMGWYRQAPGKERELVAAISDSGSSTYYADSVKGRFTISRDNAKNTVYLQMNSLKPEDTAVYYCAAVSGFYDQYDYWGQGTQVTVSS	low polyreactivity
QVQLVESGGGLVQAGGSLRLSCAASGITFPGYAMGWYRQAPGKERELVAAISTSGGSTYYADSVKGRFTISRDNAKNTVYLQMNSLTPDDTAVYYCNARLVYYSYEEMDYWGQGTQVTVSS	low polyreactivity
QVQLVESGGGLVQAGGSLRLSCAASGITFPINAMGWYRQAPGKEREFVATISFSGASTYYADSVKGRFTISRDNAKNTVYLQMNSLKPEDTAVYYCAADLSLSTGGRAFPTYGYWGQGTQVTVSS	high polyreactivity
QVQLVESGGGLVQAGGSLRLSCAASGITFPLYAMGWYRKAPGKERELVATISGRGGSTYYADYVKGRFTISRDNAKNTVYLQMNSLIPEDTAVYYCNADFRSPYFLLSWYHSGDYWGLGTQVTVSS	low polyreactivity
QVQLVESGGGLVQAGGSLRLSCAASGITFPRYAMGWYRLAPGKERELVATITRSGGGTYYADSVKGRFTISRDNAKNTVYLQMKSLKPEDTAVYYCAAGALQRGVYGYGYWGQGTEVTVSS	high polyreactivity
QVQLVESGGGLVQAGGSLRLSCAASGITFPYYAKGWYRQAPGKERELVAGISRSGGRTYYADSVKGRFTISRDNAKNTVYLQMNSLKPEDTAVYYCNARKNLLSVTFDYWGQGTQVTVSS	high polyreactivity
QVQLVESGGGLVQAGGSLRLSCAASGITFPYYALGWYRQAPGKERELVARISRGGRTNYADSVKGRFTISRDNAKNTVYLQMNSLKPEDTAVYYCNAGYTYYKYGYWGQGTQVTVSS	high polyreactivity
QVQLVESGGGLVQAGGSLRLSCAASGITFPYYAMGWSRQAPGKERELVAAISSSGGSSYYADSVKGRFTISRDNAKNTVYLQMNSLKPEDTAVYYCATRNTRFHLDYWGQGTQVTVSS	high polyreactivity
QVQLVESGGGLVQAGGSLRLSCAASGITFPYYAMGWYRQAPGKERELVAAISSSGGSTYYADSVKGRFTISRDNAKNTVYLQMNSLKPEDTAVYYCAAQRYINYDYWGQGTQVTVSS	high polyreactivity
QVQLVESGGGLVQAGGSLRLSCAASGITFPYYAMGWYRQAPGKERELVAAITRSGSSTYYADSVKGRFTISRDNAKNTVYLQMNSLKPEDTAVYYCAAKRGAGEDYWGQGTQVTVSS	high polyreactivity
QVQLVESGGGLVQAGGSLRLSCAASGITFPYYTMGWYRQAPGKERELVATIRNGGSTYYADSVKGRFTISRDNAKNTVYLQMNSMKPEDTAVYYCAAVPLWDYKFFYYLLYDYWGQGTQVTVSS	low polyreactivity
QVQLVESGGGLVQAGGSLRLSCAASGITFQANAMGWYRQAPGKERELVAAISSSDGSTYYADSVKGRFTISRDNAKNTVYVQMNSLKPEDTAVYYCAADGVVYGWPEYEYWGQGTQVTVSS	low polyreactivity
QVQLVESGGGLVQAGGSLRLSCAASGITFQDNAIGSNRQAPGKERELVAAISTGSTNYADSVKGRFTISRDNAKNTVYLQMKSLKPDDTAVYYCAALGQYQTVYSDGYDYYYWGQGTQVTVSS	low polyreactivity
QVQLVESGGGLVQAGGSLRLSCAASGITFQDYAMGWYRQAPGKERELVAAISKSGGSTYYADSVKGRFTISRDNAKNTVYLQMNSLKPEDTAVYYCAAYAQKRYYWGQGTQVTVSS	high polyreactivity
QVQLVESGGGLVQAGGSLRLSCAASGITFQNYAMGWYRQAPGKERELVAAITRSGGRTYYADSVKGRFTISRDNAMNTVYLQMNSLKPEDTAVYYCAVYGIGRPYWYDYWGQGTQVTVSS	high polyreactivity
QVQLVESGGGLVQAGGSLRLSCAASGITFQNYAMGWYRQAPGKERELVAGISYSGGSTYYADSVKGRFTISRDHAKNTVFLLMNSLKPEDTAVYDCAATRWYSYRRYYYWGQGTQVTVSS	high polyreactivity
QVQLVESGGGLVQAGGSLRLSCAASGITFQPYAMGWYRQAPGKEREFVAVISFRGGSTYYADSVKGRFTISRDNAKNTVYLQMNSLKPEDTAVYYCAALEYHGHTGGRVYYWVQGTQVTVSS	high polyreactivity
QVQLVESGGGLVQAGGSLRLSCAASGITFQRYAMGWYRQAPGKERELVAAISTNGGTTYYADSVKGRFTISRDNAKNTVYLQMNSLKPEDTAVYYCNAESGYVYYIRYNYWGQGTQVTVSS	high polyreactivity

Source: the nanobody polyreactivity screen of Harvey et al. (2022)
